± gives the standard deviation of the averaged measurements.

The data set concerns ATP. In words: switch fluorescence ratio, 500 uM ATP over buffer (Cy3 cluster intensity, sum of 5 cycles each) (fold (ratio)); higher = stronger signal-on switching upon ATP binding; sequences stand for … in TCGTCGGCAGCGTCAGATGTGTATAAGAGACAGTTTTTTTTTTTTTTTTTTTTTTTTT…TC. As to conditions: aptamer strand: ATP DNA aptamer (quencher-CACCTGGGGGAGTATTGCGGAGGAAGG + anchor), 100 nM annealed; ATP concentration: 500 uM. The method in brief: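 Between each of five buffer/ATP cycles, the flow-cell was stripped with NaOH and re-annealed. Each cycle imaged Cy3-labelled switching-strand clusters, annealed to 100 nM quencher-labelled ATP aptamer on a modified Illumina MiSeq flow-cell, first in selection buffer and then after 15 min with 500 uM ATP at 22 °C. The fluorescence ratio is summed target-cycle over summed buffer-cycle Cy3 intensity per cluster, averaged per switch-domain sequence, with clusters outside 100-1000 RFU excluded.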
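Note: ATP exposure 15 min at 22 °C before imaging.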

For the sequence CTATTACGTC, the switch fluorescence ratio is 0.984 ± 0.045.

For the sequence CTATTATGTG, the switch fluorescence ratio came out at 0.985 ± 0.043.

CTATTATTCG: the switch fluorescence ratio was determined as 1.01 ± 0.045.

As to CTATTTGAGG, the switch fluorescence ratio amounted to 0.9825 ± 0.004.

On to CTCAATGACT, for which the switch fluorescence ratio amounted to 1.02 ± 0.016.

For the sequence CTCAATGTAT, the switch fluorescence ratio was found to be 0.989 ± 0.032.

Regarding CTCAATTTTA, the switch fluorescence ratio was 0.9743 ± 0.006.

As for CTCACCACGA, the switch fluorescence ratio worked out at 1.09 ± 0.057.

As for CTCACTAGCG, the switch fluorescence ratio stood at 1.02 ± 0.031.

CTCACTGCAT: the switch fluorescence ratio stood at 1.46 ± 0.11.

With CTCAGCAGTC, the switch fluorescence ratio stood at 1.2 ± 0.034.

In the case of CTCAGCCAGT, the switch fluorescence ratio stood at 1.29 ± 0.056.

In the case of CTCAGGGATT, the switch fluorescence ratio was 1.07 ± 0.033.

Regarding CTCAGTAGGG, the switch fluorescence ratio was found to be 0.975 ± 0.024.

For the sequence CTCAGTATCG, the switch fluorescence ratio is 1.012 ± 0.002.

CTCATAACAT: the switch fluorescence ratio was determined as 1.01 ± 0.032.

On to CTCATAGGGA, for which the switch fluorescence ratio worked out at 0.983 ± 0.024.

Regarding CTCATTTATT, the switch fluorescence ratio came out at 0.98 ± 0.064.

CTCCAGACGA: the switch fluorescence ratio was 1.47 ± 0.083.

Turning to CTCCGGCGGG, the switch fluorescence ratio worked out at 1.18 ± 0.057.

Turning to CTCCGGGAAA, the switch fluorescence ratio worked out at 1.214 ± 0.0036.

For CTCCTGGCCA, the switch fluorescence ratio was determined as 1.13 ± 0.014.

With CTCCTTAGTT, the switch fluorescence ratio was found to be 1.05 ± 0.035.

CTCCTTTTTC: the switch fluorescence ratio came to 0.976 ± 0.057.

Take CTCGACATTT: the switch fluorescence ratio amounted to 1.02 ± 0.027.

On to CTCGATAGTA, for which the switch fluorescence ratio came out at 0.9741 ± 0.003.

On to CTCGCAGGGG, for which the switch fluorescence ratio was 1.37 ± 0.2.

Turning to CTCGCATGGT, the switch fluorescence ratio came to 1.37 ± 0.024.

For CTCGCCGATA, the switch fluorescence ratio was 1.03 ± 0.031.

For the sequence CTCGCGGGTG, the switch fluorescence ratio was found to be 1.14 ± 0.11.

As for CTCGGATTGG, the switch fluorescence ratio is 1 ± 0.015.

Take CTCGGCCGAG: the switch fluorescence ratio was determined as 0.982 ± 0.016.

Turning to CTCGGGGGGG, the switch fluorescence ratio is 0.998 ± 0.028.

For the sequence CTCGGGTGGT, the switch fluorescence ratio turned out to be 0.997 ± 0.061.

Turning to CTCGTAAACG, the switch fluorescence ratio is 1 ± 0.02.

CTCGTATCAG: the switch fluorescence ratio was found to be 1.01 ± 0.021.

On to CTCGTCCTTA, for which the switch fluorescence ratio amounted to 1.019 ± 0.0051.

As to CTCGTCGTAT, the switch fluorescence ratio was found to be 1.06 ± 0.05.

CTCGTGTTCG: the switch fluorescence ratio amounted to 0.984 ± 0.013.

Take CTCGTGTTGG: the switch fluorescence ratio came to 0.989 ± 0.018.

Consider CTCGTTCCTG, for which the switch fluorescence ratio was determined as 1 ± 0.031.

As to CTCGTTCTTT, the switch fluorescence ratio is 1 ± 0.031.

For the sequence CTCTAACAGC, the switch fluorescence ratio is 1.08 ± 0.022.

On to CTCTAACGG, for which the switch fluorescence ratio came out at 0.982 ± 0.089.

Take CTCTAAGGC: the switch fluorescence ratio turned out to be 1.094 ± 0.0084.

With CTCTATATTG, the switch fluorescence ratio is 1.008 ± 0.0073.

For the sequence CTCTATTGAT, the switch fluorescence ratio is 0.997 ± 0.017.

As to CTCTATTTGA, the switch fluorescence ratio stood at 0.977 ± 0.016.

For CTCTCGAAGC, the switch fluorescence ratio worked out at 1.1577 ± 0.0001.

For the sequence CTCTGAGAGG, the switch fluorescence ratio worked out at 0.9719 ± 0.0043.

Turning to CTCTGATAGC, the switch fluorescence ratio came out at 1.23 ± 0.013.

With CTCTGTGACG, the switch fluorescence ratio worked out at 1.03 ± 0.012.

Regarding CTCTGTGGTG, the switch fluorescence ratio turned out to be 1.02 ± 0.048.

With CTCTGTGTTT, the switch fluorescence ratio is 0.9924 ± 0.00037.

On to CTCTGTTGTG, for which the switch fluorescence ratio was 0.961 ± 0.012.

Consider CTCTTAGTTT, for which the switch fluorescence ratio amounted to 0.999 ± 0.023.

Consider CTCTTGGGCT, for which the switch fluorescence ratio came to 0.971 ± 0.089.

Take CTCTTGTATC: the switch fluorescence ratio came out at 1.05 ± 0.063.

With CTCTTTGCAG, the switch fluorescence ratio came to 1.086 ± 0.0044.

In the case of CTGAAGAATT, the switch fluorescence ratio stood at 1.03 ± 0.015.

Take CTGACCTGTA: the switch fluorescence ratio came out at 1.093 ± 0.0021.

Take CTGACGTGCT: the switch fluorescence ratio is 1.062 ± 0.004.

Regarding CTGAGCAAG, the switch fluorescence ratio was determined as 2.34 ± 0.28.

Consider CTGAGCGATT, for which the switch fluorescence ratio came out at 1.41 ± 0.032.

Take CTGAGCTTCG: the switch fluorescence ratio stood at 1 ± 0.0032.

For CTGAGGGGTG, the switch fluorescence ratio was determined as 1.01 ± 0.037.

Turning to CTGAGGTGGT, the switch fluorescence ratio was 0.991 ± 0.046.

As for CTGAGGTTAT, the switch fluorescence ratio stood at 1.04 ± 0.038.

Take CTGAGTATGC: the switch fluorescence ratio came out at 1.05 ± 0.026.

CTGAGTTTAT: the switch fluorescence ratio was 0.997 ± 0.023.

Regarding CTGATACATT, the switch fluorescence ratio is 0.9715 ± 0.0069.

As for CTGATACTGG, the switch fluorescence ratio came out at 0.997 ± 0.045.

For CTGATAGGAT, the switch fluorescence ratio came out at 1.22 ± 0.37.

For CTGATGCCGT, the switch fluorescence ratio was found to be 1.08 ± 0.057.

For CTGATGCGGG, the switch fluorescence ratio is 1.06 ± 0.062.

For CTGATGTGGG, the switch fluorescence ratio was determined as 0.964 ± 0.015.

For the sequence CTGATTTTCC, the switch fluorescence ratio was 1.01 ± 0.061.

Take CTGCAAGCGG: the switch fluorescence ratio was 1.28 ± 0.057.

For the sequence CTGCAGGGGG, the switch fluorescence ratio amounted to 1.05 ± 0.044.

Turning to CTGCAGTTGA, the switch fluorescence ratio amounted to 1.04 ± 0.024.

CTGCATGGTT: the switch fluorescence ratio stood at 1.01 ± 0.016.

For the sequence CTGCCCTATT, the switch fluorescence ratio is 1 ± 0.023.

CTGCGACTGT: the switch fluorescence ratio was 1.026 ± 0.0099.

For the sequence CTGCGACTTT, the switch fluorescence ratio worked out at 1.02 ± 0.035.

Take CTGCGAGGAT: the switch fluorescence ratio worked out at 1.01 ± 0.034.

For the sequence CTGCGGGAGG, the switch fluorescence ratio worked out at 1.008 ± 0.0024.

As for CTGCGGGGGA, the switch fluorescence ratio was found to be 1.03 ± 0.037.

For CTGCGGGTTA, the switch fluorescence ratio came to 1.01 ± 0.015.

For CTGCGTCTAA, the switch fluorescence ratio came to 1.03 ± 0.027.

For CTGCGTGATG, the switch fluorescence ratio was 1.03 ± 0.011.

On to CTGCTAGGCT, for which the switch fluorescence ratio worked out at 1.01 ± 0.028.

For CTGCTTGGGA, the switch fluorescence ratio came out at 1.012 ± 0.0033.

For CTGGAATGTG, the switch fluorescence ratio was 1.003 ± 0.01.

Regarding CTGGACCTTG, the switch fluorescence ratio is 0.977 ± 0.026.

On to CTGGACGCTG, for which the switch fluorescence ratio turned out to be 1.01 ± 0.017.

With CTGGAGCGCT, the switch fluorescence ratio was found to be 1.22 ± 0.054.

In the case of CTGGATCCTT, the switch fluorescence ratio worked out at 1.05 ± 0.017.

Turning to CTGGATGTTA, the switch fluorescence ratio was determined as 0.999 ± 0.024.

As for CTGGCACAGA, the switch fluorescence ratio stood at 0.988 ± 0.019.

Turning to CTGGCACTGG, the switch fluorescence ratio is 1.016 ± 0.0056.

Regarding CTGGCAGGGC, the switch fluorescence ratio came out at 1.07 ± 0.016.

Regarding CTGGCATGGA, the switch fluorescence ratio is 1.01 ± 0.021.

For the sequence CTGGCCGGGC, the switch fluorescence ratio is 1.03 ± 0.022.

As for CTGGCGACAC, the switch fluorescence ratio worked out at 1.39 ± 0.14.

CTGGCTACTA: the switch fluorescence ratio was 1.03 ± 0.031.

Regarding CTGGCTAGAG, the switch fluorescence ratio was determined as 0.973 ± 0.018.

Regarding CTGGCTATTG, the switch fluorescence ratio is 1.022 ± 0.0028.

For CTGGGACGTG, the switch fluorescence ratio was 0.967 ± 0.028.

As for CTGGGAGGGT, the switch fluorescence ratio came out at 0.9977 ± 0.0012.

CTGGGCCCGG: the switch fluorescence ratio came to 1.16 ± 0.27.

Turning to CTGGGCCGTC, the switch fluorescence ratio came out at 1.01 ± 0.021.

Take CTGGGCGGTG: the switch fluorescence ratio was determined as 0.9982 ± 0.0052.

Take CTGGGGAGCG: the switch fluorescence ratio stood at 0.954 ± 0.034.

Consider CTGGGGATCG, for which the switch fluorescence ratio is 1.02 ± 0.043.

As to CTGGGGCGCT, the switch fluorescence ratio stood at 1.028 ± 0.0032.

As to CTGGGGCGGA, the switch fluorescence ratio amounted to 0.983 ± 0.052.

Regarding CTGGGGCGGG, the switch fluorescence ratio worked out at 0.996 ± 0.057.

On to CTGGGGCGTT, for which the switch fluorescence ratio came out at 0.983 ± 0.0034.

CTGGGGGAAC: the switch fluorescence ratio stood at 1.004 ± 0.0049.

As to CTGGGGGCCG, the switch fluorescence ratio is 0.979 ± 0.054.

The values are drawn from the supplement of paper PMC10126150.
